The record followed here is patent publication US8143372B2, “Synthetic regulators of ferritin protein nanocage pores and methods of use thereof” (Children's Hospital & Research Center Oakland, priority 2007, dated 2012).

No end group written: not given here.

The test addresses T1, recombinant, frog ferritin H protein nanocages (wild type) (Aquarana catesbeiana, UniProt P07229).
T1 construct: made in house
T1 sequence (P07229 1-176): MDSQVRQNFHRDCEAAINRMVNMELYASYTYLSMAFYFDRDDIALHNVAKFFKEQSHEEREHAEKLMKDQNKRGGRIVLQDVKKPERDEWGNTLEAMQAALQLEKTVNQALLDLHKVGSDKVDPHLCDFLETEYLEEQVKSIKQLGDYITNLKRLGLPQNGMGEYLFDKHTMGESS
The test can be described thus: Ferritin demineralization: formation of Fe2+-bipyridyl after adding NADH/FMN. Type of test: biochemical. Conditions: for Initial rate of Fe^2+ bipyridyl formation, pH = 7.0: 2.5 mM FMN, 2.5 mM NADH, 2.5 mM bipyridyl, absorbance 522 nm. The source says:
The effect of the test agent on demineralization (e.g., on release of iron from ferritin) is generally carried out by contacting the test agent with ferritin in the presence of a reductant and an iron chelating agent such as bipyridyl or desferrioxamine. A suitable reductant comprises nicotinamide adenine dinucleotide reduced form (NADH) and flavin mononucleotide (FMN). The reductant reduces Fe(III) to Fe(II); and the iron chelating agent forms a complex with the Fe(II). Iron release from ferritin can be measured using any convenient method, including methods known in the art. The following is a non-limiting example of a suitable method. In this example, iron release from ferritin is measured by the formation of Fe(II)-bipyridyl. Iron release can be initiated by the addition of 2.5 mM bipyridyl, 2.5 mM FMN, and 2.5 mM NADH to ferritin in 0.1 M MOPS (pH 7.0) and 0.2 M NaCl. Formation of Fe(II)-bipyridyl is detected by measuring absorbance at 522 nm. See, e.g. Liu et al. (2003) Proc. Natl. Acad. Sci. USA 100:3653; and Takagi et al. (1998) J. Biol. Chem. 273:18685. Desferrioxamine can also be used as an iron chelator. See, e.g., Breuer et al. (2001) Blood 97:792.
The strategy used to identify molecules that would modulate ferritin protein nanocage pore function had two components: (i) searching a combinatorial peptide library for ferritin binding peptides, and (ii) analyzing the effect of reductants on the ferritin mineral inside the protein nanocages. Peptides were selected as the molecules of choice for pore alterations because of the selectivity of urea (1 mM) and guanidine (0.1 mM) in pore unfolding, observed previously. Liu and Theil (2003) Proc. Natl. Acad. Sci. U.S.A. 100:3653. Changes in ferritin protein nanocage pore gating can be analyzed as changes in the rate of ferritin iron demineralization, measured as formation of colored Fe chelates, when reductant (NADH/FMN) is added. Jones et al. (1978) Biochemistry 17:4011.
The peptides were mixed with wild type ferritin; demineralization was initiated by addition of NADH/FMN, and the appearance of Fe^2+-bipyridyl measured (FIG. 2). Three of the peptides (2, 3, and 5) had no effect on rates of formation of Fe^2+-bipyridyl, compared to wild type ferritin H protein nanocages, while Peptide 4 (Group B, eluted with ferritin H protein nanocages, after elution with ferritin H-L134P protein nanocages) decreased the rate 63%. Peptide 4 has 3 His and 1 Asp and could bind to charged residues around the pore. The peptide interaction with ferritin protein nanocage could interfere with unfolding and/or reductant access to the ferric mineral, or might induce conformational changes at the pore or elsewhere.
FIG. 2. Effect of binding peptides on removal of iron from the ferritin mineral. Demineralization of ferritin (recombinant, frog ferritin H protein nanocages; protein: 2.06 μM; Fe: 0.99 mM, MOPS: 100 mM, NaCl: 100 mM, pH 7.0) was initiated with reductant (final concentration: 2.5 mM FMN, 2.5 mM NADH), with bipyridyl (2.5 mM); formation of Fe^2+-bipyridyl was monitored at 522 nm. Initial reaction rates were calculated as described previously (Liu et al. (2003) Proc. Natl. Acad. Sci. USA 100:3653). Ferritin binding peptides, identified in a combinatorial, heptapeptide, phage-display library (1.3×10^9 members, New England Biolabs), were mixed with mineralized ferritin protein nanocages for one hour before initiating demineralization. Peptide 2 (Group A, eluted with H-L134P ferritin protein nanocage) and Peptides 3 and 5 (Group B, eluted with wild type ferritin protein nanocage), had no effect. The data are averages from triplicates in 2-5 independent experiments with two different protein preparations; the error is the standard deviation. […]

Where [1] appears, read: compared to wild type ferritin H protein nanocages without peptide.

Turning to “GDWYLGD (SEQ ID NO:5) (GDWYLGDGG; not fully specified (N-terminus)) [Peptide 3, heptapeptide from the phage display library, synthesized as an undecapeptide with HS at the N-terminus and GG at the C-terminus]”, the “Effect on rates of formation of Fe^2+-bipyridyl” value (“Effect on rates” below) under setting [1] was “no effect”.

As to “HHALGGS (SEQ ID NO:6) (HHALGGSGG; not fully specified (N-terminus)) [Peptide 5, heptapeptide from the phage display library, synthesized as an undecapeptide with HS at the N-terminus and GG at the C-terminus]”, the “Effect on rates” value under setting [1] is recorded as “no effect”.

Consider HSHHALDGSGG (SEQ ID NO:2) [Peptide 4], for which the “Initial rate of Fe^2+ bipyridyl formation, pH = 7.0” value (H-wt ferritin + peptide) is 0.41 ± 0.05 (mMol) × 10^3S^−1. The “Decrease of the rate of formation of Fe^2+-bipyridyl” value under setting [1] is 63%.

HSNTYYFPKGG (SEQ ID NO:7) [Peptide 1]: under “H-wt ferritin + peptide”, the “Initial rate of Fe^2+ bipyridyl formation, pH = 7.0” value was 6.80 ± 0.37 (mMol) × 10^3S^−1. Further, the “Rate Change with Temperature (Arrhenius equation) E‡” value (Table 1, H-wt ferritin + peptide) was found to be 79.8 ± 2.6 kJ/mol. In addition, the “E‡ in the Arrhenius plot” value (wild type ferritin complexed with peptide, FIG. 2B) worked out at 87.2 kJ/mol.

Regarding “SHTSPSI (SEQ ID NO:4) (SHTSPSIGG; not fully specified (N-terminus)) [Peptide 2, heptapeptide from the phage display library, synthesized as an undecapeptide with HS at the N-terminus and GG at the C-terminus]”, the “Effect on rates” value under setting [1] is “no effect”.
